# Reference: publication PMC9352680, “A comprehensive thermodynamic model for RNA binding by the Saccharomyces cerevisiae Pumilio protein PUF4”
# T1: PUF4 RNA-binding domain (Saccharomyces cerevisiae, UniProt P25339 537-888)
# T1 sequence: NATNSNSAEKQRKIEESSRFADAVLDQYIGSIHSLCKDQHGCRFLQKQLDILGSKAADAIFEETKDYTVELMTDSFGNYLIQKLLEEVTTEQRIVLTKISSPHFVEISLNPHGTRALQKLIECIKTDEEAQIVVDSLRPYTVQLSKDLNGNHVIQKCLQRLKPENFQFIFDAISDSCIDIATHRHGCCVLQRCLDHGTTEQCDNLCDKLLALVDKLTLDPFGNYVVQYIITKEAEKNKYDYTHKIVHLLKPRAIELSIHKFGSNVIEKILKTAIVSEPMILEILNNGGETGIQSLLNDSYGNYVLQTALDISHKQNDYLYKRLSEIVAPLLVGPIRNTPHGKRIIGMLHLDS
# Target: T1, PUF4 RNA-binding domain
# Assay: Mg; RNA-MaP; 20 mM Na-HEPES pH 7.4, 30 mM KOAc, 0.75 mM MgCl2, 0.1% Tween-20, 5% glycerol, 0.1 mg/mL BSA, 2 mM DTT; 25 C; 0.0125-409.6 nM protein
# Conditions: tags: N-His6-TEV cleaved; C-SNAP kept, Cy3B-labelled; label: tethered on chip by stalled RNA polymerase
row,Binder,Kd [nM]
1,ACAAACGCACACUAUAAUACAAAC (ssRNA) [Id_ii_S3_P3E.4_K3.3_C3.2_[C-2G]_[T-1C]_H3.3_A3.1_F3.1_T3.2_[T9A]_[A10T]],> 2300
2,ACAAACUGACACUAUAAGACAAAC (ssRNA) [Id_ii_S3_P3E.4_K3.3_C3.2_[C-2T]_[T-1G]_H3.3_A3.1_F3.1_T3.2_[T9A]_[A10G]],> 2300
3,ACAAACCAUAUAUAUAAAACAAAC (ssRNA) [Id_ii_S3_P3E.3_K3.2_C3.2_[T-1A]_H3.2_A3.1_F3.1_T3.2_[T9A]],1420
4,ACAAACAAACACUAUAGGACAAAC (ssRNA) [Id_ii_S3_P3E.4_K3.3_C3.2_[C-2A]_[T-1A]_H3.3_A3.1_F3.1_T3.2_[T9G]_[A10G]],> 2300
5,ACAAACACACACUAUAUCACAAAC (ssRNA) [Id_ii_S3_P3E.4_K3.3_C3.2_[C-2A]_[T-1C]_H3.3_A3.1_F3.1_T3.2_[A10C]],> 2300
6,UCUCUUUGUAGUAUUGUCUCUU (ssRNA) [Ic_S1_P5E.1_K5.1_C5.1_H5.1_A5.1_[T5G]_F5.1_[A10G]_T5.1],81.1
7,UCUCUUUGUAGUAUUAUCUCUU (ssRNA) [Ia_S1_P5E.1_K5.1_C5.1_H5.1_A5.1_[T5G]_F5.1_T5.1],30
8,ACAAACAUACACUAUAACACAAAC (ssRNA) [Id_ii_S3_P3E.4_K3.3_C3.2_[C-2A]_H3.3_A3.1_F3.1_T3.2_[T9A]_[A10C]],1680
9,ACAAACAGACACUAUAUUACAAAC (ssRNA) [Id_ii_S3_P3E.4_K3.3_C3.2_[C-2A]_[T-1G]_H3.3_A3.1_F3.1_T3.2_[A10T]],2200
10,ACAAACGAACACUAUAAUACAAAC (ssRNA) [Id_ii_S3_P3E.4_K3.3_C3.2_[C-2G]_[T-1A]_H3.3_A3.1_F3.1_T3.2_[T9A]_[A10T]],> 2300
11,ACAAACGGACACUAUAAAACAAAC (ssRNA) [Id_ii_S3_P3E.4_K3.3_C3.2_[C-2G]_[T-1G]_H3.3_A3.1_F3.1_T3.2_[T9A]],> 2300
12,ACAAACGAACACUAUAUCACAAAC (ssRNA) [Id_ii_S3_P3E.4_K3.3_C3.2_[C-2G]_[T-1A]_H3.3_A3.1_F3.1_T3.2_[A10C]],> 2300
13,ACAAACCCUAUAUAUAUUACAAAC (ssRNA) [Id_ii_S3_P3E.3_K3.2_C3.2_[T-1C]_H3.2_A3.1_F3.1_T3.2_[A10T]],32.7
14,ACAAACUCACACUAUAGCACAAAC (ssRNA) [Id_ii_S3_P3E.4_K3.3_C3.2_[C-2T]_[T-1C]_H3.3_A3.1_F3.1_T3.2_[T9G]_[A10C]],> 2300
15,ACAAACCAUAUAUAUAGCACAAAC (ssRNA) [Id_ii_S3_P3E.3_K3.2_C3.2_[T-1A]_H3.2_A3.1_F3.1_T3.2_[T9G]_[A10C]],328
16,ACAAACUGACACUAUACUACAAAC (ssRNA) [Id_ii_S3_P3E.4_K3.3_C3.2_[C-2T]_[T-1G]_H3.3_A3.1_F3.1_T3.2_[T9C]_[A10T]],> 2300
17,ACAAACCUUAUAUAUAUCACAAAC (ssRNA) [Id_ii_S3_P3E.3_K3.2_C3.2_H3.2_A3.1_F3.1_T3.2_[A10C]],396
18,ACAAACGAACACUAUAGCACAAAC (ssRNA) [Id_ii_S3_P3E.4_K3.3_C3.2_[C-2G]_[T-1A]_H3.3_A3.1_F3.1_T3.2_[T9G]_[A10C]],> 2300
19,ACAAACGAACACUAUACCACAAAC (ssRNA) [Id_ii_S3_P3E.4_K3.3_C3.2_[C-2G]_[T-1A]_H3.3_A3.1_F3.1_T3.2_[T9C]_[A10C]],> 2300
20,ACAAACUUACACUAUAAAACAAAC (ssRNA) [Id_ii_S3_P3E.4_K3.3_C3.2_[C-2T]_H3.3_A3.1_F3.1_T3.2_[T9A]],> 2300
21,ACAAACUAACACUAUAUAACAAAC (ssRNA) [Id_ii_S3_P3E.4_K3.3_C3.2_[C-2T]_[T-1A]_H3.3_A3.1_F3.1_T3.2],> 2300

row,Binder,Kd [nM]
1,ACAAACCCUAUAUAUACCACAAAC (ssRNA) [Id_ii_S3_P3E.3_K3.2_C3.2_[T-1C]_H3.2_A3.1_F3.1_T3.2_[T9C]_[A10C]],614
2,ACAAACCAUAUAUAUAAGACAAAC (ssRNA) [Id_ii_S3_P3E.3_K3.2_C3.2_[T-1A]_H3.2_A3.1_F3.1_T3.2_[T9A]_[A10G]],546
3,ACAAACCUUAUAUAUAUAACAAAC (ssRNA) [Id_ii_S3_P3E.3_K3.2_C3.2_H3.2_A3.1_F3.1_T3.2],500
4,ACAAACUGACACUAUACCACAAAC (ssRNA) [Id_ii_S3_P3E.4_K3.3_C3.2_[C-2T]_[T-1G]_H3.3_A3.1_F3.1_T3.2_[T9C]_[A10C]],> 2300
5,ACAAACUUACACUAUAUAACAAAC (ssRNA) [Id_ii_S3_P3E.4_K3.3_C3.2_[C-2T]_H3.3_A3.1_F3.1_T3.2],968
6,ACAAACCUUAUAUAUACCACAAAC (ssRNA) [Id_ii_S3_P3E.3_K3.2_C3.2_H3.2_A3.1_F3.1_T3.2_[T9C]_[A10C]],845
7,ACAAACAGACACUAUACAACAAAC (ssRNA) [Id_ii_S3_P3E.4_K3.3_C3.2_[C-2A]_[T-1G]_H3.3_A3.1_F3.1_T3.2_[T9C]],> 2300
8,UCUCUUUGUACUAUUUUCUCUU (ssRNA) [Ib_S1_P5E.1_K5.1_C5.1_H5.1_A5.1_[T5C]_F5.1_[A10T]_T5.1],10.2
9,ACAAACCUUAUAUAUAUGACAAAC (ssRNA) [Id_ii_S3_P3E.3_K3.2_C3.2_H3.2_A3.1_F3.1_T3.2_[A10G]],632
10,ACAAACUGACACUAUAGAACAAAC (ssRNA) [Id_ii_S3_P3E.4_K3.3_C3.2_[C-2T]_[T-1G]_H3.3_A3.1_F3.1_T3.2_[T9G]],1880
11,ACAAACGUACACUAUACCACAAAC (ssRNA) [Id_ii_S3_P3E.4_K3.3_C3.2_[C-2G]_H3.3_A3.1_F3.1_T3.2_[T9C]_[A10C]],105
12,ACAAACCCUAUAUAUACUACAAAC (ssRNA) [Id_ii_S3_P3E.3_K3.2_C3.2_[T-1C]_H3.2_A3.1_F3.1_T3.2_[T9C]_[A10T]],45.5
13,ACAAACGCACACUAUAGGACAAAC (ssRNA) [Id_ii_S3_P3E.4_K3.3_C3.2_[C-2G]_[T-1C]_H3.3_A3.1_F3.1_T3.2_[T9G]_[A10G]],> 2300
14,ACAAACUCACACUAUAUUACAAAC (ssRNA) [Id_ii_S3_P3E.4_K3.3_C3.2_[C-2T]_[T-1C]_H3.3_A3.1_F3.1_T3.2_[A10T]],2080
15,UCUCUUUGUAAUAUUGUCUCUU (ssRNA) [Ic_S1_P5E.1_K5.1_C5.1_H5.1_A5.1_[T5A]_F5.1_[A10G]_T5.1],14.9
16,ACAAACCUUAUAUAUAACACAAAC (ssRNA) [Id_ii_S3_P3E.3_K3.2_C3.2_H3.2_A3.1_F3.1_T3.2_[T9A]_[A10C]],513
17,UCUCUUUGUAAUAUUCUCUCUU (ssRNA) [Ib_S1_P5E.1_K5.1_C5.1_H5.1_A5.1_[T5A]_F5.1_[A10C]_T5.1],21.6
18,ACAAACCAUAUAUAUAACACAAAC (ssRNA) [Id_ii_S3_P3E.3_K3.2_C3.2_[T-1A]_H3.2_A3.1_F3.1_T3.2_[T9A]_[A10C]],724
19,ACAAACGUACACUAUAUCACAAAC (ssRNA) [Id_ii_S3_P3E.4_K3.3_C3.2_[C-2G]_H3.3_A3.1_F3.1_T3.2_[A10C]],51
20,ACAAACACACACUAUAGCACAAAC (ssRNA) [Id_ii_S3_P3E.4_K3.3_C3.2_[C-2A]_[T-1C]_H3.3_A3.1_F3.1_T3.2_[T9G]_[A10C]],> 2300
21,ACAAACGAACACUAUAACACAAAC (ssRNA) [Id_ii_S3_P3E.4_K3.3_C3.2_[C-2G]_[T-1A]_H3.3_A3.1_F3.1_T3.2_[T9A]_[A10C]],> 2300

row,Binder,Kd [nM]
1,ACAAACAUACACUAUACUACAAAC (ssRNA) [Id_ii_S3_P3E.4_K3.3_C3.2_[C-2A]_H3.3_A3.1_F3.1_T3.2_[T9C]_[A10T]],1070
2,ACAAACUAACACUAUAUUACAAAC (ssRNA) [Id_ii_S3_P3E.4_K3.3_C3.2_[C-2T]_[T-1A]_H3.3_A3.1_F3.1_T3.2_[A10T]],2240
3,ACAAACGAACACUAUACAACAAAC (ssRNA) [Id_ii_S3_P3E.4_K3.3_C3.2_[C-2G]_[T-1A]_H3.3_A3.1_F3.1_T3.2_[T9C]],> 2300
4,ACAAACGCACACUAUAAGACAAAC (ssRNA) [Id_ii_S3_P3E.4_K3.3_C3.2_[C-2G]_[T-1C]_H3.3_A3.1_F3.1_T3.2_[T9A]_[A10G]],> 2300
5,ACAAACCUUAUAUAUAUUACAAAC (ssRNA) [Id_ii_S3_P3E.3_K3.2_C3.2_H3.2_A3.1_F3.1_T3.2_[A10T]],28.1
6,ACAAACUCACACUAUAGAACAAAC (ssRNA) [Id_ii_S3_P3E.4_K3.3_C3.2_[C-2T]_[T-1C]_H3.3_A3.1_F3.1_T3.2_[T9G]],> 2300
7,ACAAACACACACUAUAUUACAAAC (ssRNA) [Id_ii_S3_P3E.4_K3.3_C3.2_[C-2A]_[T-1C]_H3.3_A3.1_F3.1_T3.2_[A10T]],1650
8,ACAAACGGACACUAUACUACAAAC (ssRNA) [Id_ii_S3_P3E.4_K3.3_C3.2_[C-2G]_[T-1G]_H3.3_A3.1_F3.1_T3.2_[T9C]_[A10T]],2160
9,ACAAACCUUAUAUAUAGCACAAAC (ssRNA) [Id_ii_S3_P3E.3_K3.2_C3.2_H3.2_A3.1_F3.1_T3.2_[T9G]_[A10C]],144
10,ACAAACAUACACUAUACCACAAAC (ssRNA) [Id_ii_S3_P3E.4_K3.3_C3.2_[C-2A]_H3.3_A3.1_F3.1_T3.2_[T9C]_[A10C]],1760
11,ACAAACUUACACUAUAUUACAAAC (ssRNA) [Id_ii_S3_P3E.4_K3.3_C3.2_[C-2T]_H3.3_A3.1_F3.1_T3.2_[A10T]],959
12,ACAAACGUACACUAUAACACAAAC (ssRNA) [Id_ii_S3_P3E.4_K3.3_C3.2_[C-2G]_H3.3_A3.1_F3.1_T3.2_[T9A]_[A10C]],100
13,ACAAACGCACACUAUACAACAAAC (ssRNA) [Id_ii_S3_P3E.4_K3.3_C3.2_[C-2G]_[T-1C]_H3.3_A3.1_F3.1_T3.2_[T9C]],> 2300
14,ACAAACUUACACUAUAGCACAAAC (ssRNA) [Id_ii_S3_P3E.4_K3.3_C3.2_[C-2T]_H3.3_A3.1_F3.1_T3.2_[T9G]_[A10C]],2170
15,ACAAACAAACACUAUACAACAAAC (ssRNA) [Id_ii_S3_P3E.4_K3.3_C3.2_[C-2A]_[T-1A]_H3.3_A3.1_F3.1_T3.2_[T9C]],> 2300
16,ACAAACGGACACUAUAUUACAAAC (ssRNA) [Id_ii_S3_P3E.4_K3.3_C3.2_[C-2G]_[T-1G]_H3.3_A3.1_F3.1_T3.2_[A10T]],1380
17,UCUCUUUGUAGUAUUUUCUCUU (ssRNA) [Ib_S1_P5E.1_K5.1_C5.1_H5.1_A5.1_[T5G]_F5.1_[A10T]_T5.1],101
18,ACAAACCCUAUAUAUAUGACAAAC (ssRNA) [Id_ii_S3_P3E.3_K3.2_C3.2_[T-1C]_H3.2_A3.1_F3.1_T3.2_[A10G]],769
19,ACAAACAUACACUAUAGAACAAAC (ssRNA) [Id_ii_S3_P3E.4_K3.3_C3.2_[C-2A]_H3.3_A3.1_F3.1_T3.2_[T9G]],1310
20,ACAAACUGACACUAUAUUACAAAC (ssRNA) [Id_ii_S3_P3E.4_K3.3_C3.2_[C-2T]_[T-1G]_H3.3_A3.1_F3.1_T3.2_[A10T]],1340
21,UCUCUUUGUACUAUUCUCUCUU (ssRNA) [Ib_S1_P5E.1_K5.1_C5.1_H5.1_A5.1_[T5C]_F5.1_[A10C]_T5.1],12.5
